From patent publication US5276170A, “Azido-substituted aromatic amino acids” (The United States of America as represented by the …, priority 1992, dated 1994)

Substrate: [N-]=[N+]=Nc1cc(O)ccc1C[C@H](N)C(=O)O
Test: Tyrosine phenol-lyase catalyzed hydrolytic cleavage to ammonium pyruvate and 3-azidophenol
Assay type: biochemical
Settings: other: as substrate

B1: tyrosine phenol-lyase (Citrobacter freundii) (protein)
chain: MNYPAEPFRIKSVETVSMIPRDERLKKMQEAGYNTFLLNSKDIYIDLLTDSGTNAMSDKQWAGMMMGDEAYAGSENFYHLERTVQELFGFKHIVPTHQGRGAENLLSQLAIKPGQYVAGNMYFTTTRYHQEKNGAVFVDIVRDEAHDAGLNIAFKGDIDLKKLQKLIDEKGAENIAYICLAVTVNLAGGQPVSMANMRAVRELTEAHGIKVFYDATRCVENAYFIKEQEQGFENKSIAEIVHEMFSYADGCTMSGKKDCLVNIGGFLCMNDDEMFSSAKELVVVYEGMPSYGGLAGRDMEAMAIGLREAMQYEYIEHRVKQVRYLGDKLKAAGVPIVEPVGGHAVFLDARRFCEHLTQDEFPAQSLAASIYVETGVRSMERGIISAGRNNVTGEHHRPKLETVRLTIPRRVYTYAHMDVVADGIIKLYQHKEDIRGLKFIYEPKQLRFFTARFDYI
- Km: 1000 µM
